Data on 15 molecules can be found in patent publication US20260234738A1 (Regeneron, published 2026).

Positions count from the first letter of the chain named.

B1: mAb10920 (antibody, V domains shown)
VH: QVQLVESGGGVVQPGRSLRLSCAASGFTFSYYGMHWVRQAPGKGLEWVAVIWYDGSNKFYADSVKGRFTISRDNSKNTLYLQMNSLRAEDTAVYYCAAARPGYYYGMDVWGQGTTVTVSS
VL: DIQMTQSPSSLSASVGDRVTITCRASQGISNYLAWFQQKPGKAPNSLIYAASSLQRGVPSKFSGSGSGTDFTLTISSLQPEDFATYYCQQYNSYPRTFGQGTKVEIKR
B2: mAb10921 (antibody, V domains shown)
VH: EVQLVESGGGLVQPGGSLRLSCAASGITVSSNYMSWVRQAPGKGLEWVSVIYSGGSTFYADSVKGRFTISRHNSKNTLYLQMNSLRAEDTAVYYCARERNFDAFDIWGQGTMVTVSS
VL: DIQMTQSPSSVSASVGDRVTITCRASQGISSWLAWYQQKPGKAPKLLIYAASSLQSGVPSRFSGSGSGTDFTLTISSLQPEDFATYYCQQANSFPLFTFGPGTKVDIKR
B3: mAb10923 (antibody, V domains shown)
VH: QVQLVQSGAEVKKPGASVKVSCKASGYTFINYYIHWVRQAPGQGLEWMGWINPNSGGTNYAQKFQGRVTMTRDTSISTAYMELSRLRSDDTAVYYCAIITIFGVVTWFDPWGQGTLVTVSS
VL: not shown
B4: mAb10913 (antibody, V domains shown)
VH: EVQLVESGGGLVQPGGSLRLSCAASGFTFRNYEMNWVRQAPGKGLEWVSYITSSGSTMYYADSVKGRFTISRDNAKNSLYLQMNSLRAEDTAVYYCARDGFYYYYAMDVWGQGTTVTVSS
VL: QSVLTQPPSVSAAPGQKVTISCSGSSSNIGNNYVSWYQQLPGTAPKLLIYDNNKRPSGIPDRFSGSKSGTSATLGITGLQTGDEADYYCGTWDSSLSVGRVFGTGTKVTVLG
B5: mAb10915 (antibody, V domains shown)
VH: EVQLVESGGGLVQPGGSLRLSCAASGFTVSSNYMNWVRQAPGKGLEWVSVIYSGGSTFYADSVKGRFTISRHNSKNTLYLQMNSLRPEDTAVYYCARDLGGYFDYWGQGTLVTVSS
VL: not shown
B6: mAb10932 (antibody, V domains shown)
VH: EVQLVESGGGLVQSGGSLRLSCAASGLTVSSNYMSWVRQAPGKGLEWVSVIYSGGSTFYSDSVKGRFTISRHNSKNTLYLQMNSLRAEDTAVYYCARARGDAFDIWGQGTMVTVSS
VL: not shown
B7: mAb10982 (antibody, V domains shown)
VH: EVQLVESGGGLVQPGGSLRLSCAASGLTVSSNYMSWVRQAPGKGLEWVSVIYSGGTTYYADSVKGRFTISRHNSKNTLSLQMNSLRAEDTAVYYCARGEGANYYGMDVWGQGTTVTVSS
VL: QSVLTQPPSVSGAPGQRVTISCTGSSSNIGTGYDVHWYQQLPGTAPKLLIYGNSNRPSGVPDRFSGSKSGTSASLAITGLQAEDEADYYCQSYDSSLSGYVVFGGGTKLTVLG
B8: mAb10936 (antibody, V domains shown)
VH: QVQLVESGGGVVQPGRSLRLSCAASGFTFRNYGMHWVRQAPGKGLEWVSVIWYDGSNRYYADSVKGRFTISRDTSKNTLYLQMNSLRAEDTAVYYCARDPPITGTTGGDAFDIWGQGTMVTVSS
VL: not shown
B9: mAb10930 (antibody, V domains shown)
VH: EVQLVESGGGLVQPGRSLRLSCAASGFTFDDYAMYWVRQAPGKGLEWVSGISWNSGSIGYADSVKGRFTISRDNAKNSLYLQMNSLRAADTALYYCAKDKDWNSRGYYYYGMDVWGQGTTVTVSS
VL: not shown
B10: mAb10934 (antibody, V domains shown)
VH: not shown
VL: DIQMTQSPSSLSASVGDRVTITCQASQDIWNYINWYQQKPGKAPKLLIYDASNLKTGVPSRFSGSGSGTDFTFTISSLQPEDIATYYCQQHDDLPPTFGQGTKVEIKR
B11: mAb10938 (antibody, V domains shown)
VH: EVQLVESGGGLVQPGGSLRLSCAVSGFTVSSNYMSWVRQAPGKGLEWVSLIYSGGSTFYADSVKGRFTISRHNSKNTLYLQMNSLRAEDTAVYYCAREGGYSYDYNYWGQGTLVTVSS
VL: B10 VL with W30R, I33L, K55E, S65I, H91Y, D93N, P96I, K103R, V104L
B12: mAb10935 (antibody, V domains shown)
VH: EVQLVESGGGLVQPGGSLRLSCAASGFTVSSNYMSWVRQAPGKGLEWVSLIYSGGSTYYADSVKGRFTISRHNSKNTLYLQMNSLRSEDTAVYYCARVPLGDYYYGMDVWGQGTTVTVSS
VL: B10 VL with W30N, N31K, I33L, K55E, H91S, D93N, P96L, Q100G
B13: mAb10937 (antibody, V domains shown)
VH: QITLKESGPTLVKPTQTLTLTCTFSGFSLSTNVVGVGWIRQPPGKALEWLALIYWNDDKRYSPSLKSRLTITKDTSKNQVVLTMTNMDPVDTATYYCAHGPTGDYFDYWGQGTLVTVSS
VL: not shown
B14: mAb10914 (antibody, V domains shown)
VH: EVQLVESGGGLVQPGGSLRLSCAASGLIVSRNYMIWVRQAPGKGLEWVSVIYSGGSTFYADSVKGRFTISRHNSKNTLYLQMNSLRAEDTAVYYCARDLGTGGMDVWGQGTTVTVSS
VL: DIQLTQSPSFLSASVGDRVTITCWASQGISSYLAWYQQKPGKAPKLLIYAASTLQSGVPSRFSGSGSGTEFTLTISSLQPEDFATYYCQQLNSYPLTFGGGTKVEIKR
B15: mAb10939 (antibody, V domains shown)
VH: EVQLVESGGGLVQPGGSLRLSCAASGLTVSSNYMNWVRQVPGKGLEWVSVIYSGGSKFYVDSVKGRFTISRHNSKNTLYLQMNSLRPEDTAVYYCTRDAQYYGMDVWGQGTTVTVSS
VL: DIQMTQSPSSLSASVGDRVTITCRASQSISTYLHWYQQKPGEAPKLLIYAASSLQSGVPSRFSGSGSGTDFTLTISSLQPEDFATYYCQQSYSTPPEIFGQGTKLEIKR

The first assay has as its target SARS-CoV-2 Spike Protein (RBD) (R319-F541).mFc (SARS-CoV-2). The assay is described as follows: Luminex beads, supernatant.
Regarding B1, the MFI amounted to 36400 MFI.
B2 showed an MFI of 19400 MFI.
Molecule B3 gave an MFI of 37400 MFI.
Same read-out and setting: the value for B4 was 33000 MFI.
Same read-out and setting: the figure for B5 is 31800 MFI; for B6 it is 30600 MFI.
The same measure, in the same setting: the value for B7 was 23300 MFI; that for B8 was 33700 MFI; that for B9 was 28600 MFI.
Molecule B10 gave an MFI of 34300 MFI.
Take B11: the MFI is 30500 MFI.
Same read-out and setting: the figure for B12 is 35900 MFI.
Consider B13, for which the MFI was found to be 34200 MFI.
Take B14: the MFI turned out to be 30700 MFI.
B15 returned an MFI of 33900 MFI.

Another assay concerns the target SARS-CoV-2 Spike Protein (RBD) (R319-F541).hFc (SARS-CoV-2). The assay is described as follows: Luminex beads, supernatant.
Turning to B1, the MFI was determined as 36800 MFI.
As for B2, the MFI amounted to 22300 MFI.
Regarding B3, the MFI was found to be 37800 MFI.
On the same count and under the same terms, the value for B4 was 31900 MFI; that for B5 was 32400 MFI.
On the same count and under the same terms, the figure for B6 is 30600 MFI; for B7 it is 23000 MFI.
Still for that read-out and setting: the figure for B8 is 33900 MFI; for B9 it is 28900 MFI; for B10 it is 35800 MFI.
In the case of B11, the MFI is 29600 MFI.
Still for that read-out and setting: the value for B12 was 35600 MFI; that for B13 was 34600 MFI.
Still for that read-out and setting: the figure for B14 is 30500 MFI.
On the same count and under the same terms, the figure for B15 is 32900 MFI.

For another assay, the target named is Bt-SARS-CoV-2 Spike Protein (RBD) (R319-F541).mFc (SARS-CoV-2). The assay is described as follows: Luminex beads, supernatant.
Molecule B1 gave an MFI of 20300 MFI.
On the same count and under the same terms, the figure for B2 is 11300 MFI; for B3 it is 19600 MFI; for B4 it is 16600 MFI.
With B5, the MFI is 20100 MFI.
Still for that read-out and setting: the figure for B6 is 17700 MFI; for B7 it is 12300 MFI.
In the case of B8, the MFI was 21600 MFI.
The same measure, in the same setting: the figure for B9 is 16600 MFI; for B10 it is 21200 MFI.
B11 showed an MFI of 17200 MFI.
Same read-out and setting: the figure for B12 is 19300 MFI.
The same measure, in the same setting: the figure for B13 is 19700 MFI; for B14 it is 16000 MFI; for B15 it is 18700 MFI.
